Data as given in US20240109971A1 (MONASH UNIVERSITY, published 2024).
Positions count from the first letter of the chain named. Each block holds one binder with its values, some of them ahead of it.

Key:
[1] = target: T1, Peptide 1 (amino acid position 1-28 of the human CCR6) (human, biotinylated); assay: ELISA, biotinylated peptide on a streptavidin-coated plate
T1 construct: also called first 28 AA
T1 peptide: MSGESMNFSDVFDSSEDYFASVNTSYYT
Protocol: (§1) Two overlapping biotinylated peptides spanning the entire N-terminal region of human CCR6 were then synthesized and used in more defined anti-CCR6 mAb epitope mapping studies. Peptide 1 ([…], SEQ ID NO: 2) corresponds to amino acid position 1-28 of the human CCR6 and Peptide 2 ([…], SEQ ID NO: 101) corresponds to amino acid position 18-46 of the human CCR6. Briefly, multiwell plates were coated with streptavidin and washed before the biotinylated peptides were added to separate wells and incubated to facilitate binding of the peptides to the plate. Different anti-human CCR6 antibodies were then tested by adding the respective antibodies to the wells of the plate and incubating the plate. An isotype control and buffer only were included as negative controls. Following washing, appropriate conjugated antibodies were added and the plates were incubated. The plates were washed again and binding of the antibodies to the immobilised peptides was visualised (FIGS. 8 and 9).

[2] = target: T2, Peptide 2 (amino acid position 18-46 of the human CCR6) (human, biotinylated); assay: as above
T2 construct: also called AA 18 to 46
T2 peptide: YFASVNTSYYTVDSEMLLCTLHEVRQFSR
Protocol: as §1

[3] = target: T3, human CCR6 (human, UniProt P51684 1-374); assay: flow cytometry, hybridoma culture supernatant on L1.2/hCCR6 transfectants
T3 construct: also called hCCR6; CD196
T3 sequence: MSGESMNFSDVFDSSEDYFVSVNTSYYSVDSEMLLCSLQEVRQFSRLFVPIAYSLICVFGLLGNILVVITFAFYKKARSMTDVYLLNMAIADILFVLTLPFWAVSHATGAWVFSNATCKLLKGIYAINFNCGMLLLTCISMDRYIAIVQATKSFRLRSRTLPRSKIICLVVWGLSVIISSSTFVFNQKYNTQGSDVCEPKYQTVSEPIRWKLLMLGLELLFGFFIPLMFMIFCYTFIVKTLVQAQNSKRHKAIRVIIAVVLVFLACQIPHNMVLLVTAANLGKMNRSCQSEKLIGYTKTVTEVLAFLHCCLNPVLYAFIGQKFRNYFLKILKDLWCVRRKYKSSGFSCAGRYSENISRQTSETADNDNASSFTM

[4] = target: T4, hCXCR1 (human, UniProt P25024 1-350); assay: flow cytometry, hybridoma culture supernatant on L1.2/hCXCR1 transfectants
T4 construct: whole, on cells; also called hCXCRI; human CXCR1 transfected L1.2 cells
T4 sequence (looked up): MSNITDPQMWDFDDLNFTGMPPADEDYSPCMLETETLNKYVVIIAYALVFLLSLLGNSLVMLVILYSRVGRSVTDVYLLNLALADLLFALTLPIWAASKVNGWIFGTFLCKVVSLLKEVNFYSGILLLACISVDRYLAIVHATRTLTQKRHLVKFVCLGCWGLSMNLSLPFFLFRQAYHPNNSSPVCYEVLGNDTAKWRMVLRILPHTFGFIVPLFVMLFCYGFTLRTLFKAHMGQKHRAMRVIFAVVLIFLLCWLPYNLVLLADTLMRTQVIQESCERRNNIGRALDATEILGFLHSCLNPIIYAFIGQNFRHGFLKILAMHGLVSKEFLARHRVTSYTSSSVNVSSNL

[5] = target: T5, hCXCR2 (human, UniProt P25025 1-360); assay: flow cytometry, hybridoma culture supernatant on L1.2/hCXCR2 transfectants
T5 construct: whole, on cells; also called human CXCR2 transfected L1.2 cells
T5 sequence (looked up): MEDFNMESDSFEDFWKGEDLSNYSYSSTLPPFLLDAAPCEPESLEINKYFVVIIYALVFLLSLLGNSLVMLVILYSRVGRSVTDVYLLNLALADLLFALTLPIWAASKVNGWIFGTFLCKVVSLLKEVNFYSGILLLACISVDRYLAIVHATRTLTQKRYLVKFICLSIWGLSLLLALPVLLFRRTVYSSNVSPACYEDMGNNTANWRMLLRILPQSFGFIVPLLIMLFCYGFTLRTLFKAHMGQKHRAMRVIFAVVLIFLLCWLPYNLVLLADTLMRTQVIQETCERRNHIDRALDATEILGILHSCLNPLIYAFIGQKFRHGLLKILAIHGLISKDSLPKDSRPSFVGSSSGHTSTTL

[6] = target: T6, hCXCR3 (human, UniProt P49682 1-368); assay: flow cytometry, hybridoma culture supernatant on L1.2/hCXCR3 transfectants
T6 construct: whole, on cells; also called human CXCR3 transfected L1.2 cells
T6 sequence (looked up): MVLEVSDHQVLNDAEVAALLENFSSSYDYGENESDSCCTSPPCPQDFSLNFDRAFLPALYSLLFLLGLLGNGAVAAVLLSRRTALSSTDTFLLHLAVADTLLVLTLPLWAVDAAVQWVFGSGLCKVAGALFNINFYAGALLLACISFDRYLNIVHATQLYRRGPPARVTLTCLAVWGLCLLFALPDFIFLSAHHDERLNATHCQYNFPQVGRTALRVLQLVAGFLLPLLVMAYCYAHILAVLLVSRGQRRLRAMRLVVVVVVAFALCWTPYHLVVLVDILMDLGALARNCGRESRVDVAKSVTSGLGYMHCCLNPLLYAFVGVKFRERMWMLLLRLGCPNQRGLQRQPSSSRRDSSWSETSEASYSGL

[7] = target: T3, human CCR6; assay: competition with 125I-MIP-3α for L1.2/hCCR6 transfectants, partially purified mAb
Protocol: For ligand binding analysis, recombinant human CCL20 (MIP3α) (“ligand”) was obtained from Peprotech (New Jersey, USA). […] Cells were washed once in binding buffer (50 mM Hepes, pH 7.5, 1 mM CaCl, 5 mM MgCb, 0.5% BSA) and resuspended in binding buffer at a concentration of 2.5×10^6 cells/ml. Cold Purified monoclonal antibody or diluted hybridoma culture medium (cold competitor) was added to a 96-well plate followed by an equal volume (40 μl) binding buffer containing 1×10^5 cells. Cells and competitor were preincubated at room temperature for 15 min. Then radiolabeled ligand (final concentration 0.5-2 nM) was added to each well to give a final reaction volume of 120 μl. After a 60-min incubation at room temperature, the cells were washed three times with 1 ml of binding buffer containing 150 mM NaCl. The radioactivity (amount of bound label) in the cell pellets was counted in a TopCount liquid scintillation counter (Packard). Non-specific background binding was calculated by incubating cells […]. Samples were assayed in duplicate.
After incubation and washing the amount of label bound to cells was measured and the percentage inhibition determined by comparison to a control reaction with no added antibody (FIGS. 1 and 5).

B1: AB7 (antibody, V domains shown)
VH: QDQLQQSGVALARPGASVKLSCKASEYTFKSFGLGWVKQRPGQGLEWIGEIYPRSGNTYYNEKVKGKVRLTADKSSNSVYMEFRSLTSEDSAVYFCARSPYDGYFDYWGQGTTLTVS
VL: DVVMTHSPLSLPVSLGDQASISCRSSQSLLHINGNTYLHWYLQKPGQSPKLLIYRVSNRLSGVPDRFSGSGSGTDFTLKISRVEAEDLGVYFCSQSTHVPRTFGGGTKLEIKR
notes: Mouse hybridoma antibody; also called clone AB7
- binding result [1]: binds
- binding result [2]: binds

B2: AB3 (antibody, V domains shown)
VH: EVNLVESGGGLVQPGGSLKLSCAASGFTFSDYYLYWVRQTPEKRLEWVTYITNGGGRTYYSDTVRGRFTISRDNAKNTLYLQMSRLKSEDTAMYYCASPPLGGAWFGYWGQGTLVTVS
VL: DVLMTQTPLSLPVSLGDQASISCRSSQSIVHSNGNTYLEWYLQKPGQSPKLLIYKVSKRFSGVPDRFSGSGSGTDFTLKISRVEAEDLGVYYCFQGSHVPLTFGAGTKLELKR
notes: Mouse hybridoma antibody, isotype IgG1; also called AB3-N21
- binding result [1]: binds
- binding result [3]: binds
- binding result [4]: no binding (tested: not given (culture supernatant))
- binding result [5]: no binding (tested: not given (culture supernatant))
- binding result [6]: no binding (tested: not given (culture supernatant))

B3: AB4 (antibody, V domains shown)
VH: B2 VH with L34M
VL: B2 VL with I29L, E84G
notes: Mouse hybridoma antibody, isotype IgG2b; also called AB4-K15
- binding result [3]: binds
- binding result [4]: no binding (tested: not given (culture supernatant))
- binding result [5]: no binding (tested: not given (culture supernatant))
- binding result [6]: no binding (tested: not given (culture supernatant))

B4: mouse AB6 mAb (antibody, V domains shown)
VH: B2 VH with N3K, T28P, T49A, G55V, T63S, R65K, A92S, A97T, G107A
VL: B2 VL
notes: Mouse hybridoma antibody, isotype IgG2b; also called mAB6; AB6-K5
- binding result [1]: binds
- binding result [4]: no binding (tested: not given (culture supernatant))
- binding result [5]: no binding (tested: not given (culture supernatant))
- binding result [6]: no binding (tested: not given (culture supernatant))
- IC50 (read off the curve) [7]: ~7 nM

Next, values leading:

- binding result [1]: binds
- binding result [7]: binds
B5: AB2 (antibody, V domains shown)
VH: B2 VH with A23E, T28S, L34M, V64I, K76R, A97T
VL: B2 VL with L3S, I29L
notes: Mouse hybridoma antibody, isotype IgG1; also called AB2-O17

- binding result [1]: binds
- binding result [7]: binds
B6: AB11 (antibody, V domains shown)
VH: B2 VH with K19I, A23E, T28S, L34M, T63A, V64I, K76R, A97T
VL: B2 VL with L3S, I29L
notes: Mouse hybridoma antibody, isotype IgG1; also called AB11-M9

- binding result [7]: binds
B7: AB5 (antibody, V domains shown)
VH: B2 VH with A23E, L34M, G55A, G107A
VL: B2 VL with L3S, I29L
notes: Mouse hybridoma antibody, isotype IgG1; also called AB5-M19
